The target of data set [1] is T1, Sox2 HMG DBD WT (human, UniProt P48431 39-118). The data set is described as follows: NMR.
The target of data set [2] is T1, Sox2 HMG DBD WT. The data set is described as follows: EMSA. In general terms: In EMSA bound probe runs differently from free probe, usually more slowly.
The target of data set [3] is Sox2 HMG Y72A (human, UniProt P48431 39-118, Y108A). In words: NMR.
In data set [4] the target is T1, Sox2 HMG DBD WT. The data set is described as follows: NMR. The source holds these as a separate data set.
Data set [5] concerns the target Oct4 DBD (POUS-linker-POUHD) (UniProt Q01860 133-296). In words: EMSA.

Positions count from the first letter of the chain named. Where two headings read alike, the source gives them in different places.

Oct4 DBD (POUS-linker-POUHD), sequence (Q01860 133-296): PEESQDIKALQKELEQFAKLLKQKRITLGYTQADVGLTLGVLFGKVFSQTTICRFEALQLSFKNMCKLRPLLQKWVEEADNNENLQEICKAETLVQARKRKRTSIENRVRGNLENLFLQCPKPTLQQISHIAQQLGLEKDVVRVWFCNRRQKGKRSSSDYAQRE
T1 sequence (P48431 39-118): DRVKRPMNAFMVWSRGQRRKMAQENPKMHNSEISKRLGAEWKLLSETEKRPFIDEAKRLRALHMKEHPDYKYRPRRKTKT
Sox2 HMG Y72A, sequence (P48431 39-118 Y108A): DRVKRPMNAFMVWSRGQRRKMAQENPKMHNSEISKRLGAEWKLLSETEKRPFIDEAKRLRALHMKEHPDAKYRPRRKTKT

B1: DNA 27F (dsDNA)
DNA 1: TGGAGAATCCCGGTGCCGAGGCCGCTCAATTGGTCGTAGACAGCTCTAGCACCGCTTAAACGCACGTACGCGCTGTCCCCCGCGTTATTAGCATCCAAACAAAGACTCCCTAGTCTCCAGGCACGTGTGGTTACGAGGCTATCGT
DNA 2: ACGATAGCCTCGTAACCACACGTGCCTGGAGACTAGGGAGTCTTTGTTTGGATGCTAATAACGCGGGGGACAGCGCGTACGTGCGTTTAAGCGGTGCTAGAGCTGTCTACGACCAATTGAGCGGCCTCGGCACCGGGATTCTCCA
As for B1, in data set [1], the binding result is listed as “binds”.

B2: DNA 62N (dsDNA)
DNA 1: TGGAGAATCCCGGTGCCGAGGCCGCTCAATTGGTCGTAGACAGCTCTAGCACCGCTTAAACGCACGTACGCGCTGTCCCCCGCGTTTTAACCGCCAAGGGGATTACTCCCTAGTCTCCAGGCACTTTTGCATTACAATGTATCGT
DNA 2: ACGATACATTGTAATGCAAAAGTGCCTGGAGACTAGGGAGTAATCCCCTTGGCGGTTAAAACGCGGGGGACAGCGCGTACGTGCGTTTAAGCGGTGCTAGAGCTGTCTACGACCAATTGAGCGGCCTCGGCACCGGGATTCTCCA
As usually defined, the Kd is the constant that tells how readily two partners part at equilibrium. In data set [2], B2 gave a Kd of 2.3 ± 0.3 nM.

B3: DNA 62F (dsDNA)
DNA 1: TGGAGAATCCCGGTGCCGAGGCCGCTCAATTGGTCGTAGACAGCTCTAGCACCGCTTAAACGCACGTACGCGCTGTCCCCCGCGTTTTAACCGCCAAGGGGATTACTCCCTAGTCTCCAGGATTAGCATCCAAACAAAGTATCGT
DNA 2: ACGATACTTTGTTTGGATGCTAATCCTGGAGACTAGGGAGTAATCCCCTTGGCGGTTAAAACGCGGGGGACAGCGCGTACGTGCGTTTAAGCGGTGCTAGAGCTGTCTACGACCAATTGAGCGGCCTCGGCACCGGGATTCTCCA
In turn, B3 displayed a Kd in data set [2] of 2.1 ± 0.2 nM.

B4: sDNAF (dsDNA)
DNA 1: GACTCTTTGTTTGGC
DNA 2: GCCAAACAAAGAGTC
For the molecule B4, the binding result in data set [3] and in data set [4] was “binds” throughout.

B5: DNA 54RF (dsDNA)
DNA 1: TGGAGAATCCCGGTGCCGAGGCCGCTCAATTGGTCGTAGACAGCTCTAGCACCGCTTAAACGCACGTACGCGCTGTCCCCCGCGTTTTAACCGCCAAGGGGATTACTCCCTAGTCTCCAGGCCTTTGTTTGGATGCTAATATCGT
DNA 2: ACGATATTAGCATCCAAACAAAGGCCTGGAGACTAGGGAGTAATCCCCTTGGCGGTTAAAACGCGGGGGACAGCGCGTACGTGCGTTTAAGCGGTGCTAGAGCTGTCTACGACCAATTGAGCGGCCTCGGCACCGGGATTCTCCA
For the molecule B5, the Kd was determined as 1.1 ± 0.2 nM in data set [2] and 32 ± 3 nM in data set [5].

B6: DNA 54RN (dsDNA)
DNA 1: TGGAGAATCCCGGTGCCGAGGCCGCTCAATTGGTCGTAGACAGCTCTAGCACCGCTTAAACGCACGTACGCGCTGTCCCCCGCGTTTTAACCGCCAAGGGGATTACTCCCTAGTCTCCAGGCCATTGTAATGCAAAAGCTATCGT
DNA 2: ACGATAGCTTTTGCATTACAATGGCCTGGAGACTAGGGAGTAATCCCCTTGGCGGTTAAAACGCGGGGGACAGCGCGTACGTGCGTTTAAGCGGTGCTAGAGCTGTCTACGACCAATTGAGCGGCCTCGGCACCGGGATTCTCCA
On to B6, for which the Kd in data set [2] was determined as 3 ± 0.4 nM; in data set [5] it was 38 ± 4 nM.

B7: DNA 2RN (dsDNA)
DNA 1: TGGAGAATCCCGGTGCCGAGGCCGCTCAATTGGTCGTAGACAGCTCTAGCACCGCTTAAACGCACGTACGCATTGTAATGCAAAATTTAACCGCCAAGGGGATTACTCCCTAGTCTCCAGGCACGTGTGGTTACGAGGCTATCGT
DNA 2: ACGATAGCCTCGTAACCACACGTGCCTGGAGACTAGGGAGTAATCCCCTTGGCGGTTAAATTTTGCATTACAATGCGTACGTGCGTTTAAGCGGTGCTAGAGCTGTCTACGACCAATTGAGCGGCCTCGGCACCGGGATTCTCCA
B7 came in with a Kd in data set [2] of 3.7 ± 0.5 nM.

B8: DNA 601* (dsDNA)
DNA 1: B7 DNA 1 with A72G, T73C, A77C, A78C, T79C, G80C, A82G, A83C, A84G, A85T
DNA 2: B2 DNA 2 with C7G, A8C, T9C, G11C, T12G, A13T, T15A, G16C, A19C, A21C
As to B8, the Kd was 8 ± 0.7 nM in data set [2] and 160 ± 20 nM in data set [5].

The values are drawn from article doi:10.1101/2022.01.18.476780.
